In paper PMC9482650, “Quantitative fragmentomics allow affinity mapping of interactomes” (Nature Communications, 2022):

T1: RADIL, Q96JH8
T1 sequence (Q96JH8 971-1071, limits assumed, looked up): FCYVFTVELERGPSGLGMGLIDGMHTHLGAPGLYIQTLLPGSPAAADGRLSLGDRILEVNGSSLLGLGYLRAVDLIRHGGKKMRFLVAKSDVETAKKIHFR

T2: PDZD2_2, O15018
T2 sequence (O15018 329-429, limits assumed, looked up): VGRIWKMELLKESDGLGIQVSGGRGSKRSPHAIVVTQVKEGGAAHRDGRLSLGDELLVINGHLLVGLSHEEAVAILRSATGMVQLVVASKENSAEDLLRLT

T3: APBA3_1, O96018
T3 sequence (O96018 389-490, limits assumed, looked up): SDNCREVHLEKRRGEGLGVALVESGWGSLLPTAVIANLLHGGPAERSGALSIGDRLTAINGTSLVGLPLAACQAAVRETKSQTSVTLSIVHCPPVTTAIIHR

T4: TIAM2, Q8IVF5
T4 sequence (Q8IVF5 885-986, limits assumed, looked up): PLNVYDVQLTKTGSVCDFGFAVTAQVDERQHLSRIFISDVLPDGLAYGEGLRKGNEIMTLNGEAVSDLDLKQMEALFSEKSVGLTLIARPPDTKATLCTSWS

T5: SNTG1, Q9NSN8
T5 sequence (Q9NSN8 52-150, limits assumed, looked up): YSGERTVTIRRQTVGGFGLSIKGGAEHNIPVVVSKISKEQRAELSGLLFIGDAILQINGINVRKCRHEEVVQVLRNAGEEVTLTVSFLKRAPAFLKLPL

T6: LNX2_3, Q8N448
T6 sequence (Q8N448 463-564, limits assumed, looked up): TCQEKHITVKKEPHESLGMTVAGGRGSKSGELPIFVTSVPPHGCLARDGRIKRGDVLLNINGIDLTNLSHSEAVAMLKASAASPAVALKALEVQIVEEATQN

T7: MPP6, Q9NZW5
T7 sequence (Q9NZW5 125-219, limits assumed, looked up): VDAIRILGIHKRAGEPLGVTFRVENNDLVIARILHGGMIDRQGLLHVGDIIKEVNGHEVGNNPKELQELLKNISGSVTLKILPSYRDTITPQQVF

T8: SNTB1, Q13884
T8 sequence (Q13884 107-205, limits assumed, looked up): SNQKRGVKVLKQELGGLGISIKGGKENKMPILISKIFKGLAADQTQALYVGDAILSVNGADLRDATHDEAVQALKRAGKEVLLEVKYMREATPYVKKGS

T9: RAPGEF6, Q8TEU7
T9 sequence (Q8TEU7 525-625, limits assumed, looked up): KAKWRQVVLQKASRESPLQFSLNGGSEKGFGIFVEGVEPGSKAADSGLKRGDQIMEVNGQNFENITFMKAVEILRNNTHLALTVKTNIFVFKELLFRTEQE

T10: GRIP1_7, Q9Y3R0
T10 sequence (Q9Y3R0 999-1096, limits assumed, looked up): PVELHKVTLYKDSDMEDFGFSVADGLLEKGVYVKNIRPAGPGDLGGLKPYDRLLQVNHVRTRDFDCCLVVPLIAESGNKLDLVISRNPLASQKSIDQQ

T11: APBA2_1, Q99767
T11 sequence (Q99767 563-664, limits assumed, looked up): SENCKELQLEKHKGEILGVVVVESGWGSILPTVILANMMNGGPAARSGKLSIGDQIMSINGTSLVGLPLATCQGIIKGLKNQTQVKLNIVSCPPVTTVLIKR

T12: HTRA4, P83105
T12 sequence (P83105 378-476, limits assumed, looked up): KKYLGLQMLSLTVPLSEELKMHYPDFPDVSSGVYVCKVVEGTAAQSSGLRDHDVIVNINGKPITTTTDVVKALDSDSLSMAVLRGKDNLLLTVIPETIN

B1: TBC1D10A, Q9BXI6 (peptide)
chain: TSQESEDTYL
B2: ERBB2, P04626 (peptide)
chain: PEYLGLDVPV

Target: DLG1_1, Q12959
Assay: holdup assay
Parameters: key: below the threshold = too weak to quantify, mostly under pKd 3.1 to 4
Details: plain residues with an end cap or a label only (N-terminal biotin on a linker: ado-ado)

| Binder | pKd |
| --- | --- |
| B1 | below the threshold |
| B2 | below the threshold |

Target: T1, RADIL, Q96JH8
Assay: holdup assay
Parameters: key: below the threshold = too weak to quantify, mostly under pKd 3.1 to 4
Details: plain residues with an end cap or a label only (N-terminal biotin on a linker: ado-ado)

| Binder | pKd |
| --- | --- |
| B1 | below the threshold |
| B2 | below the threshold |

Target: GRIP2_5, Q9C0E4
Assay: holdup assay
Parameters: key: below the threshold = too weak to quantify, mostly under pKd 3.1 to 4
Details: plain residues with an end cap or a label only (N-terminal biotin on a linker: ado-ado)

Chain of GRIP2_5, Q9C0E4 (Q9C0E4 544-642): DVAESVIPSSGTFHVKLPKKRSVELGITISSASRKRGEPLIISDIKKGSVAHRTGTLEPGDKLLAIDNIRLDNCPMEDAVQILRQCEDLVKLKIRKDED

| Binder | pKd |
| --- | --- |
| B1 | below the threshold |
| B2 | below the threshold |

Target: Inadl_5, Q8NI35
Assay: holdup assay
Parameters: key: below the threshold = too weak to quantify, mostly under pKd 3.1 to 4
Details: plain residues with an end cap or a label only (N-terminal biotin on a linker: ado-ado)

Chain of Inadl_5, Q8NI35 (Q8NI35 673-780): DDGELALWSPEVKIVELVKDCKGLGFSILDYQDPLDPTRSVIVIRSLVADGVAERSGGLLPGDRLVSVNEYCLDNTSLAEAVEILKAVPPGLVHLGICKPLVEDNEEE

| Binder | pKd |
| --- | --- |
| B1 | below the threshold |
| B2 | below the threshold |

Target: T2, PDZD2_2, O15018
Assay: holdup assay
Parameters: key: below the threshold = too weak to quantify, mostly under pKd 3.1 to 4
Details: plain residues with an end cap or a label only (N-terminal biotin on a linker: ado-ado)

| Binder | pKd |
| --- | --- |
| B1 | 4.49 |
| B2 | below the threshold |

Target: T3, APBA3_1, O96018
Assay: holdup assay
Parameters: key: below the threshold = too weak to quantify, mostly under pKd 3.1 to 4
Details: plain residues with an end cap or a label only (N-terminal biotin on a linker: ado-ado)

| Binder | pKd |
| --- | --- |
| B1 | below the threshold |
| B2 | below the threshold |

Target: T4, TIAM2, Q8IVF5
Assay: holdup assay
Parameters: key: below the threshold = too weak to quantify, mostly under pKd 3.1 to 4
Details: plain residues with an end cap or a label only (N-terminal biotin on a linker: ado-ado)

| Binder | pKd |
| --- | --- |
| B1 | below the threshold |
| B2 | below the threshold |

Target: T5, SNTG1, Q9NSN8
Assay: holdup assay
Parameters: key: below the threshold = too weak to quantify, mostly under pKd 3.1 to 4
Details: plain residues with an end cap or a label only (N-terminal biotin on a linker: ado-ado)

| Binder | pKd |
| --- | --- |
| B1 | below the threshold |
| B2 | 3.55 |

Target: T6, LNX2_3, Q8N448
Assay: holdup assay
Parameters: key: below the threshold = too weak to quantify, mostly under pKd 3.1 to 4
Details: plain residues with an end cap or a label only (N-terminal biotin on a linker: ado-ado)

| Binder | pKd |
| --- | --- |
| B1 | below the threshold |
| B2 | below the threshold |

Target: T7, MPP6, Q9NZW5
Assay: holdup assay
Parameters: key: below the threshold = too weak to quantify, mostly under pKd 3.1 to 4
Details: plain residues with an end cap or a label only (N-terminal biotin on a linker: ado-ado)

| Binder | pKd |
| --- | --- |
| B1 | below the threshold |
| B2 | below the threshold |

Target: Inadl_2, Q8NI35
Assay: holdup assay
Parameters: key: below the threshold = too weak to quantify, mostly under pKd 3.1 to 4
Details: plain residues with an end cap or a label only (N-terminal biotin on a linker: ado-ado)

Chain of Inadl_2, Q8NI35 (Q8NI35 238-335): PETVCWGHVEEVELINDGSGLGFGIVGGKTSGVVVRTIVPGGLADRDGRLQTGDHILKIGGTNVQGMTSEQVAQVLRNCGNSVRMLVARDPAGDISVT

| Binder | pKd |
| --- | --- |
| B1 | below the threshold |
| B2 | below the threshold |

Target: LIMK2, P53671
Assay: holdup assay
Parameters: key: below the threshold = too weak to quantify, mostly under pKd 3.1 to 4
Details: plain residues with an end cap or a label only (N-terminal biotin on a linker: ado-ado)

Chain of LIMK2, P53671 (P53671 143-248): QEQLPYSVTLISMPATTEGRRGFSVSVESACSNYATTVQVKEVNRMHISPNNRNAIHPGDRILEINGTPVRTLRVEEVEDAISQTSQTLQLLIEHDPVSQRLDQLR

| Binder | pKd |
| --- | --- |
| B1 | below the threshold |
| B2 | below the threshold |

Target: T8, SNTB1, Q13884
Assay: holdup assay
Parameters: key: below the threshold = too weak to quantify, mostly under pKd 3.1 to 4
Details: plain residues with an end cap or a label only (N-terminal biotin on a linker: ado-ado)

| Binder | pKd |
| --- | --- |
| B1 | 3.79 |
| B2 | 3.92 |

Target: GRIP2_4, Q9C0E4
Assay: holdup assay
Parameters: key: below the threshold = too weak to quantify, mostly under pKd 3.1 to 4
Details: plain residues with an end cap or a label only (N-terminal biotin on a linker: ado-ado)

Chain of GRIP2_4, Q9C0E4 (Q9C0E4 446-548): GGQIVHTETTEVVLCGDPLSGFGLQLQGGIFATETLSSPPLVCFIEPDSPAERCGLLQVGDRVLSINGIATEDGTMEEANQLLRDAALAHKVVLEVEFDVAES

| Binder | pKd |
| --- | --- |
| B1 | below the threshold |
| B2 | below the threshold |

Target: TJP1_3, Q07157
Assay: holdup assay
Parameters: key: below the threshold = too weak to quantify, mostly under pKd 3.1 to 4
Details: plain residues with an end cap or a label only (N-terminal biotin on a linker: ado-ado)

Chain of TJP1_3, Q07157 (Q07157 416-512): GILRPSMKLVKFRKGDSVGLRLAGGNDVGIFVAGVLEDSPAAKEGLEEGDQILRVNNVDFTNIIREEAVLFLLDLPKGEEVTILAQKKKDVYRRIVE

| Binder | pKd |
| --- | --- |
| B1 | below the threshold |
| B2 | below the threshold |

Target: GRIP2_6, Q9C0E4
Assay: holdup assay
Parameters: key: below the threshold = too weak to quantify, mostly under pKd 3.1 to 4
Details: plain residues with an end cap or a label only (N-terminal biotin on a linker: ado-ado)

Chain of GRIP2_6, Q9C0E4 (Q9C0E4 648-740): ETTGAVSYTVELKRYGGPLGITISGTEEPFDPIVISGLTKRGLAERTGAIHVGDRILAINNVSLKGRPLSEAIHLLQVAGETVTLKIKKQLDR

| Binder | pKd |
| --- | --- |
| B1 | below the threshold |
| B2 | below the threshold |

Target: PDLIM1, O00151
Assay: holdup assay
Parameters: key: below the threshold = too weak to quantify, mostly under pKd 3.1 to 4
Details: plain residues with an end cap or a label only (N-terminal biotin on a linker: ado-ado)

Chain of PDLIM1, O00151 (O00151 1-87): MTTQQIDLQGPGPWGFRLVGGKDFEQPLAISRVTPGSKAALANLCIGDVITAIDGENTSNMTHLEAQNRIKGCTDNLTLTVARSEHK

| Binder | pKd |
| --- | --- |
| B1 | below the threshold |
| B2 | below the threshold |

Target: T9, RAPGEF6, Q8TEU7
Assay: holdup assay
Parameters: key: below the threshold = too weak to quantify, mostly under pKd 3.1 to 4
Details: plain residues with an end cap or a label only (N-terminal biotin on a linker: ado-ado)

| Binder | pKd |
| --- | --- |
| B1 | below the threshold |
| B2 | below the threshold |

Target: T10, GRIP1_7, Q9Y3R0
Assay: holdup assay
Parameters: key: below the threshold = too weak to quantify, mostly under pKd 3.1 to 4
Details: plain residues with an end cap or a label only (N-terminal biotin on a linker: ado-ado)

| Binder | pKd |
| --- | --- |
| B1 | below the threshold |
| B2 | 3.52 |

Target: DLG4_1, P78352
Assay: holdup assay
Parameters: key: below the threshold = too weak to quantify, mostly under pKd 3.1 to 4
Details: plain residues with an end cap or a label only (N-terminal biotin on a linker: ado-ado)

Chain of DLG4_1, P78352 (P78352 62-152): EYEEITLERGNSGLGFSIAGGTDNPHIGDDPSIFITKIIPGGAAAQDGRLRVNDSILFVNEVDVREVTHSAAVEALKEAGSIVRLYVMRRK

| Binder | pKd |
| --- | --- |
| B1 | below the threshold |
| B2 | below the threshold |

Target: Inadl_3, Q8NI35
Assay: holdup assay
Parameters: key: below the threshold = too weak to quantify, mostly under pKd 3.1 to 4
Details: plain residues with an end cap or a label only (N-terminal biotin on a linker: ado-ado)

Chain of Inadl_3, Q8NI35 (Q8NI35 359-469): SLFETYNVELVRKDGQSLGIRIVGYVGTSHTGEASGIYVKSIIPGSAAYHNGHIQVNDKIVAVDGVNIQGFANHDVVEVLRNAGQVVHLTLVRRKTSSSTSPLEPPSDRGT

| Binder | pKd |
| --- | --- |
| B1 | below the threshold |
| B2 | 3.48 |

Target: DLG5_1, Q8TDM6
Assay: holdup assay
Parameters: key: below the threshold = too weak to quantify, mostly under pKd 3.1 to 4
Details: plain residues with an end cap or a label only (N-terminal biotin on a linker: ado-ado)

Chain of DLG5_1, Q8TDM6 (Q8TDM6 617-713): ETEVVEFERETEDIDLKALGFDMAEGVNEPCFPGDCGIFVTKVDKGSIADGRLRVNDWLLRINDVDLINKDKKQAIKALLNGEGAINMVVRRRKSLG

| Binder | pKd |
| --- | --- |
| B1 | below the threshold |
| B2 | below the threshold |

Target: FRMPD2_2, Q68DX3
Assay: holdup assay
Parameters: key: below the threshold = too weak to quantify, mostly under pKd 3.1 to 4
Details: plain residues with an end cap or a label only (N-terminal biotin on a linker: ado-ado)

Chain of FRMPD2_2, Q68DX3 (Q68DX3 944-1038): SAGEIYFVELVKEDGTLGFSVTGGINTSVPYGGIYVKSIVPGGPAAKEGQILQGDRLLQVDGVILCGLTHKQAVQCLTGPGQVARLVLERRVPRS

| Binder | pKd |
| --- | --- |
| B1 | below the threshold |
| B2 | below the threshold |

Target: T11, APBA2_1, Q99767
Assay: holdup assay
Parameters: key: below the threshold = too weak to quantify, mostly under pKd 3.1 to 4
Details: plain residues with an end cap or a label only (N-terminal biotin on a linker: ado-ado)

| Binder | pKd |
| --- | --- |
| B1 | below the threshold |
| B2 | below the threshold |

Target: T12, HTRA4, P83105
Assay: holdup assay
Parameters: key: below the threshold = too weak to quantify, mostly under pKd 3.1 to 4
Details: plain residues with an end cap or a label only (N-terminal biotin on a linker: ado-ado)

| Binder | pKd |
| --- | --- |
| B1 | 3.75 |
| B2 | 3.98 |
